{
  "source": "the DeepSol protein solubility set",
  "data": [
    {"experiment": "soluble on expression in E. coli; label from the status in PepcDB or PDB records", "values": [
      {"sequence": "MRGSHHHHHHTDPALRAKKIPCVMMRGGTSRGAFLLAEHLPEDQTQRDKILMAIMGSGNDLEIDGIGGGNPLTSKVAIISRSSDPRADVDYLFAQVIVHEQRVDTTPNCGNMLSGVGAFAIENGLIAATSPVTRVRIRNVNTGTFIEADVQTPNGVVEYEGSARIDGVPGTAAPVALTFLNAAGTKTGKVFPTDNQIDYFDDVPVTCIDMAMPVVIIPAEYLGKTGYELPAELDADKALLARIESIRLQAGKAMGLGDVSNMVIPKPVLISPAQKGGAINVRYFMPHSCHRALAITGAIAISSSCALEGTVTRQIVPSVGYGNINIEHPSGALDVHLSNEGQDATTLRASVIRTTRKIFSGEVYLPGLCGR", "soluble on expression in E. coli": "soluble"},
      {"sequence": "MRGSPHHHHHHGSAKNVVLDHDGNLDDFVAMVLLASNTEKVRLIGALCTDADCFVENGFNVTGKIMCLMHNNMNLPLFPIGKSAATAVNPFPKEWRCLAKNMDDMPILNIPENVELWDKIKAENEKYEGQQLLADLVMNSEEKVTICVTGPLSNVAWCIDKYGEKFTSKVEECVIMGGAVDVRGNVFLPSTDGTAEWNIYWDPASAKTVFGCPGLRRIMFSLDSTNTVPVRSPYVQRFGEQTNFLLSILVGTMWAMCTHCELLRDGDGYYAADALTAAYVVDQKVANVDPVPIDVVVDKQPNEGATVRTDAENYPLTFVARNPEAEFFLDMLLRSARAC", "soluble on expression in E. coli": "soluble"},
      {"sequence": "MRGSPRTKDRLAALKAAVSDEEDVEEVAVQVDSGGGFMEEFFEQVEEIRAMIDKISDNVDAVKKKHSDILSAPQTDDQMKEELEELMTDIKRTANKVRGKLKTIELNIEQEEHSNKSSADLRIRKTQYSTISRKFVEVMSDYNTTQIDYRDRCKARIKRQMEITGRTTTNEELEDMLESG", "soluble on expression in E. coli": "soluble"},
      {"sequence": "MRIALFTETFLPKIDGIVTRLCQTVRHLQRNGHQVLVVAPDGGLDHYEGARIYGVSGFPLPLYPELKLALPRPAIGKALAAFEPDLIHVANPAVLGLAGLYYAQKFQLPLVASYHTHLPQYLKYYGLGFLEELLWFLLRWGHNCAQLNLCTSTAMVAELKAHGIRHLDLWQRGVDVELFHPQRQSQEMRHFLSQGHPEAPLLLYVGRLSAEKEIEQIKPILEQIPQARLALVGNGPHREALEKHFAGTPTHFVGYLRGERLAGAFASADVFIFPSRTETLGLVLLEAMAAGCPVVAANSGGIPDIVTDGVNGFLFDPADPTGAITACQRLFDSPDDRETLRQNARQEAERWSWAAATQQLEQYYRSVLPVPQRDVALSHLEHHHHHH", "soluble on expression in E. coli": "not soluble"},
      {"sequence": "MRIEAAELRILELPLKFRFETSFGVQTKRTILLLRLFGEGLEGLGEGVMERLPLYREETVAGARYLLEEVFLPRVLGRDLPNPEALREALAPFRGNPMAKAVLEMAFFDLWAKALGRPLWQVLGGVRQAVEVGVSLGIQPSVEDTLRVVERHLEEGYRRIKLKIKPGWDYEVLKAVREAFPEATLTADANSAYSLANLAQLKRLDELRLDYIEQPLAYDDLLDHAKLQRELSTPICLDESLTGAEKARKAIELGAGRVFNVKPARLGGHGESLRVHALAESAGIPLWMGGMLEAGVGRAHNLHLATLPGFTKPGDVSSASRYWEEDIVEEALEAKDGLMPVPEGVGIGVHLKLPFVERVTLWQRYMSAS", "soluble on expression in E. coli": "soluble"},
      {"sequence": "MRIGIISVGPGNIMNLYRGVKRASENFEDVSIELVESPRNDLYDLLFIPGVGHFGEGMRRLRENDLIDFVRKHVEDERYVVGVCLGMQLLFEESEEAPGVKGLSLIEGNVVKLRSRRLPHMGWNEVIFKDTFPNGYYYFVHTYRAVCEEEHVLGTTEYDGEIFPSAVRKGRILGFQFHPEKSSKIGRKLLEKVIECSLSRR", "soluble on expression in E. coli": "soluble"},
      {"sequence": "MRIGLFGGSFDPIHLGHLLAASQAQEVLCLDRVLFVVAARPPHKVPVAPAEARYEMTLLAVAEDPRFTVSRLELDRPGPSYTVDTLREARRLFPQDELFFITGADAYRDVLTWKEGERLPEYATLVAVARPGYPLEEAPLPVVPLFVPEVGISSTEIRRRLKEGRSVRYWVPRAVEVYIEKHGLYR", "soluble on expression in E. coli": "soluble"},
      {"sequence": "MRILQLILLALATGLVGGETRIIKGFECKPHSQPWQAALFEKTRLLCGATLIAPRWLLTAAHCLKPRYIVHLGQHNLQKEEGCEQTRTATESFPHPGFNNSLPNKDHRNDIMLVKMASPVSITWAVRPLTLSSRCVTAGTSCLISGWGSTSSPQLRLPHTLRCANITIIEHQKCENAYPGNITDTMVCASVQEGGKDSCQGDSGGPLVCNQSLQGIISWGQDPCAITRKPGVYTKVCKYVDWIQETMKNN", "soluble on expression in E. coli": "soluble"},
      {"sequence": "MRINEMALHEKPRERLITYGAKSLSNVELLAILLNTGRKGFSSIDIANELLKQQSTIRDLKKLSINDLLKIKGIGLYKAVILQAAFELGERINSTSTFDKVQITHPSDVASLMMSTMKDLEQEHFVVLLLNSKNIVTKQAWVYKGTLNSSIIHPREVFNIAIRESSNSIIVVHNHPSGDVTPSKEDITTTYRLKECGDILGINLLDHIIIGDNKFTSLVEAGYFDK", "soluble on expression in E. coli": "not soluble"},
      {"sequence": "MRIQIRYDDIDYLGHVNNARFLAYFEIGRLSYMKRFFNTRSAKDISMVIARAELDFERSVMFEDDIFVRTWISRVGNRSFDFSYTIEDDGGTVFCRGRTVNVFVEDGKPVSVPDFVKDLVISDVKT", "soluble on expression in E. coli": "not soluble"},
      {"sequence": "MRITDLLSKDVMIMSLQATTKEAAIDEMIASLKSNGKINDEVLFKEAIMNREAQSSTGVGEGIAMPHAKTKAVNEPTVVFAKSEKGLDYNSLDGQPAHLFFMIAAPDGANATHLETLAALSRLLVHPAFVQSLKDAKTPDDVITLFNNEQGDAEE", "soluble on expression in E. coli": "not soluble"},
      {"sequence": "MRKAERVRKTNETDIELAFTIDGGGQADIKTDVPFMTHMLDLFTKHGQFDLSINAKGDVDIDDHHTTEDIGICLGQALLEALGDKKGIKRYGSAFVPMDEALAQVVIDLSNRPHLEMRADFPAAKVGTFDTELVHEFLWKLALEARMNLHVIVHYGTNTHHMIEAVFKALGRALDEATTIDPRVKGIPSTKGMLLEHHHHHH", "soluble on expression in E. coli": "not soluble"},
      {"sequence": "MRKLSTRPLPLGDGFFDSSSDSSESELSDKDDEDRYSDSTVSTLTSQDRRDTQGCQYPRSSELPISESPAPRARRARKQRSKRKSVKPPNTSSDDSSDDSDDSSSSSSSDDSVSSKSSTNSSDSSPCRCRDGLAEWEQRHGRRWHPYGRNGTWEPYRNRRRGIYDCENSPRETYSNGA", "soluble on expression in E. coli": "not soluble"},
      {"sequence": "MRKLTAMLVASSLALGAAGLAHANEAPKGPGSEHKMMMKEGREHRGMMGSDAMFKELNLTEAQKQQIKDIMKDSREKMHKAMQDDRRDMHSLVASDTFDAAKAQAQLDKADAAHKARMLSGLETKNKIYNVLTPEQKKQYNDSFEKRLTQPPKPDGKPVPAELEHHHHHH", "soluble on expression in E. coli": "soluble"},
      {"sequence": "MRKMKKMDADTLTAILAFQRLSGTGKSLLEGAAKDAEAGRYSIIAINPVHEIKVYQHDYYIDGTHQVVADPLKEIELFIEKAREDELELPLDSGAIGYVGYDVIALYEDLGEIPVETRDIPDIRFYVYESFVIMDHQAEELILVQDNCYSGRSEADLDKALESMLTELTTPKKDEHKAVHVPKMSYKSNYTKDEYMGLVKKAKTYIQEGDFFQIVLSQRLEADFTVKPFDYYRKLRLLNPSPYLYFIDFGDTVLIGSSPESLIKTKGRTVITNPIAGTRRRGATKQEDELLASELLSDEKELAEHRMLVDLGRNDIGKIAETGSVHVPVYLTIERYRFLMHLVSVVEGTLKTGLTAIDALRSTLPAGTVSGAPKIRAMERIYEWENVKRGPYAGAVGYLTKNGDSDFALSIRTMVLHNGKAYVQAGAGIVYDSDPESEYLETLQKAKALLEVGE", "soluble on expression in E. coli": "not soluble"},
      {"sequence": "MRKRLITVKNLFEYVQENELVIQADMIITPGAKDIIRDKGIGVKYEKCCCESESKMKNEIKKDCQNFEKKVIDIITKEFKITDSETVQKILSKLKELL", "soluble on expression in E. coli": "not soluble"},
      {"sequence": "MRKVTLMDVFTHPIAQKYLQRSGVAHAIACAYHAYRLSVKADINPDLAAKAALLHDIGHYEWYTDGKWDYEKYKRNDIHAIKGAERAHKLLIRLGEEPKAAKEIALAILLHTDSYLPEGELDKNTLQQIVKKADELDEEPGGHHHYRQIDPSTARKKIEKLDQLIDQAQASVIKPV", "soluble on expression in E. coli": "not soluble"},
      {"sequence": "MRLFILLSCLLAWVLAAPYIDQEDALRVLNAYLEQFGPGSDRVYYVAEDDHGSMKRGLGPRPLRFG", "soluble on expression in E. coli": "not soluble"},
      {"sequence": "MRLIPLGAAALAGALALAPAARAEMSAAEREAVRAEVRAYLLENPEVLMEAFTALEQRQQLDQVNADLARLQDHSSEIYTDPASWAGGNLQGDITVVEFIDYRCGYCRKANAEVEELVASDGNIRFVLKEYPILGEESVLASRFAISVLQIAGPEPYKAVHDKLITFRGDITTEALGRLADEMKLDRAAILAHMDKDEVTAVIAANHKLAETLEISGTPTFVVDRTMVRGYVPLDGMRQIVEGQRKG", "soluble on expression in E. coli": "not soluble"},
      {"sequence": "MRLLVTGGAGFIGSHFVRQLLAGAYPDVPADEVIVLDSLTYAGNRANLAPVDADPRLRFVHGDIRDAGLLARELRGVDAIVHFAAESHVDRSIAGASVFTETNVQGTQTLLQCAVDAGVGRVVHVSTNQVYGSIDSGSWTESSPLEPNSPYAASKAGSDLVARAYHRTYGLDVRITRCCNNYGPYQHPEKLIPLFVTNLLDGGTLPLYGDGANVREWVHTDDHCRGIALVLAGGRAGEIYHIGGGLELTNRELTGILLDSLGADWSSVRKVADRKGHDLRYSLDGGKIERELGYRPQVSFADGLARTVRWYRENRGWWEPLKATAPQLPATAVEVSA", "soluble on expression in E. coli": "soluble"},
      {"sequence": "MRLNIVVVGVGGQGALTTSGIIARAAMRAGLNVVTAETHGMAQRGGSVEVHVRIGDVRAPLIPEGGADVMIALEPAEALRYAKFLNKNTLVILNTRKIIPPSVTAGTAKYPELDEIIGELRKVTPRVIPVNASEIAEKAGSVLATNVVVVGMLFGYYSMPFGIEHVEEAIRETMKSKIVDLNLKALKMGYNQAI", "soluble on expression in E. coli": "not soluble"},
      {"sequence": "MRLRNKPWAKDKIAAYPQYVIPDPETKRGRWRELFGRDRPIHVEIGTGKGKFITEMAKLHPDVNFIGIELYPSVLVSALDKLIESGLANVKLLNANAKDLTAFFADGEVSRIYLNFSDPWPKKRHEKRRLTYRDFLALYDRILAEDGDIHLKTDNQSFFEYSLVSLSQYGFVLASVQLDLHQSGMTDNVMTEYEEKFSSKGNRIYPMRGGAPAAAVVIGPNRLVGSFSISD", "soluble on expression in E. coli": "not soluble"},
      {"sequence": "MRLTKLAATIGCVTLSGLALVACSSDSTAGTDAVAVGGTFQFHSPDGKMEIFYDEADRQQLPDIGGDSLMEEGTQINLSDFENQVVILNAWGQWCAPCRSESDDLQIIHEELQAAGNGDTPGGTVLGINVRDYSRDIAQDFVTDNGLDYPSIYDPPFMTAASLGGVPASVIPTTIVLDKQHRPAAVFLREVTSKDVLDVALPLVDEA", "soluble on expression in E. coli": "not soluble"},
      {"sequence": "MRLYRDRAVVLRQHKLGEADRIVTLLTRDHGLVRAVAKGVRRTRSKFGARLEPFAHIEVQLHPGRNLDIVTQVVSVDAFATDIVADYGRYTCGCAILETAERLAGEERAPAPALHRLTVGALRAVADGQRPRDLLLDAYLLRAMGIAGWAPALTECARCATPGPHRAFHIATGGSVCAHCRPAGSTTPPLGVVDLMSALYDGDWEAAEAAPQSARSHVSGLVAAHLQWHLERQLKTLPLVERFYQADRSVAERRAALIGQDIAGG", "soluble on expression in E. coli": "not soluble"},
      {"sequence": "MRMRHKPWADDFLAENADIAISNPADYKGKWNTVFGNDNPIHIEVGTGKGQFISGMAKQNPDINYIGIELFKSVIVTAVQKVKDSEAQNVKLLNIDADTLTDVFEPGEVKRVYLNFSDPWPKKRHEKRRLTYSHFLKKYEEVMGKGGSIHFKTDNRGLFEYSLKSFSEYGLLLTYVSLDLHNSNLEGNIMTEYEEKFSALGQPIYRAEVEWRTLEHHHHHH", "soluble on expression in E. coli": "not soluble"}
    ]}
  ]
}
